Assay [1] has as its target CCR5 chemokine receptor (human) (UniProt P51681). Description: flow cytometry on cells.
The target is the same in assay [2]. Description: plasmonic metal-enhanced fluorescence imaging of cells.

Sequence of UniProt P51681 (P51681 whole entry): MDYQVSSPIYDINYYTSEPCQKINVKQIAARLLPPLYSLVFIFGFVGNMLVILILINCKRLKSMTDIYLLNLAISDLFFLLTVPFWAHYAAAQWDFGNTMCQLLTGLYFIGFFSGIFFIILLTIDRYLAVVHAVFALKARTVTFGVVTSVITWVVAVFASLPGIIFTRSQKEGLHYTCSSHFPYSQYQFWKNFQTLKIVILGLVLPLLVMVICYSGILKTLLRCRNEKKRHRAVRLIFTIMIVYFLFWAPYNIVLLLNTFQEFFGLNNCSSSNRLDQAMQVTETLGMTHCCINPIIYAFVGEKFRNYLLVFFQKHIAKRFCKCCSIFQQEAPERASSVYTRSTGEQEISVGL

“full length single chain (FLSC) IgG1 (Fc fusion)”: the reduction in CCR5 intensity (staining by mAb 45531) after FLSC IgG1 in assay [1] was 10%. For the same substance, the fold increase of CCR5 binding on MVC-treated against untreated cells in assay [2] is 1.65 fold.
